# From PMC6803640, “Oligomeric state, hydrodynamic properties and target recognition of human Calcium and Integrin Binding protein 2 (CIB2)” (Scientific Reports, 2019)
# “Also recorded” adds a separate entry of the source.
# T1: human CIB2 (Homo sapiens, UniProt O75838)
# T1 construct: made in house
# T1 sequence (O75838 1-187): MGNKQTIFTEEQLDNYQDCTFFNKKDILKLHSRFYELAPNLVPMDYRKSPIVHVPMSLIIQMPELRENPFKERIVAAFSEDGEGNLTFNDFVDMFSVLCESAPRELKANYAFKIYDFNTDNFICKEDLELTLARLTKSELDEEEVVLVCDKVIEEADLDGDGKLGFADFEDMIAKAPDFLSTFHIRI
# Legend:
# [1] = system: Trypsin; test: Limited proteolysis of CIB2 with trypsin; conditions: 30 min, 25 °C, 25 µM CIB2, trypsin 1:100, SDS-PAGE
# Procedure: (§1) Figure 5 CIB2 limited proteolysis. (A) 10 µM CIB2 was incubated at 25 °C in the presence of 1 mM EDTA (Apo), 500 µM EGTA + 1 mM Mg^2+ (Mg^2+) and 1 mM Mg^2+ + 2 mM Ca^2+ for 10 minutes at 25 °C. Samples were boiled and loaded in a 18% SDS polyacrylamide gel. (B) Limited proteolysis was performed incubating trypsin with 25 µM CIB2 in the same concentrations of ions used for (A) (protein:enzyme ratio was 100:1). Samples were collected at different times, boiled and loaded on a 18% SDS-PAGE. Both gels run for 45–50 min, then they were Coomassie Blue-stained. The figure results from two separate gels, which have been reported in full length in Fig. S6.
# Limited proteolysis experiments were performed incubating 25 µM CIB2 in the presence of Trypsin (Sigma) in a ratio 1:100 enzyme:CIB2 at 25 °C. Three conditions were tested: 1 mM EDTA, 500 µM EGTA + 1 mM Mg^2+ and 1 mM Mg^2+ + 2 mM Ca^2+. Time-resolved proteolysis patterns are reported in Supplementary Materials (Fig. S2), results shown in Fig. 5 refer to reactions stopped after 5 min and 30 min. Proteolysis products were loaded on a 15% or 18% SDS gel, as indicated.
# His-tagged proteins, and then blocked via amine coupling as explained above. Preparation of the […]
# approximately 2250 RU of CIB2 immobilized. […]
# [2] = CIB2 stability at 25 °C without trypsin (SDS-PAGE); assay type: physicochemical; conditions: 10 µM CIB2, 10 minutes at 25 °C; EDTA, Mg^2+, Mg^2+ + Ca^2+
# Procedure: as §1
# [3] = target: T1, human CIB2; test: SPR CIB2 dimerization; assay type: binding; conditions: amine-coupled CIB2 (130 RU and 226 RU), CIB2 92 nM – 46 μM injected; Ca^2+ and Mg^2+
# Text: SPR is a powerful and versatile technique to detect at real time biomolecular interactions, and it can be applied to study protein oligomerization, in particular dimerization, when care is taken to immobilize on the surface of a sensor chip low amounts of proteins under controlled conditions[27]–[29]. Two independent experiments were run following low levels of amine-coupling of CIB2 (130 RU and 226 RU, respectively) on the surface of a sensor chip. […]
# by summing the volume of each residue and correcting the final volume for electrostriction as explained in Ref.4, therefore the specific volume for Rec, CaM and CIB2 were 0.712, 0.694 and 0.715 cm3/g respectively. The molecular weight used for the estimation of hydrodynamic diameter was calculated based on the effective protein sequence of each pdb file using Protein Calculator 3.4 (http://protcalc.sourceforge.net/).
# Surface plasmon resonance analysis
# A SensiQ Pioneer surface plasmon resonance instrument (FortéBio Pall) was employed for the investigation of the CIB2 dimerization and for the real-time monitoring of its interaction with selected peptides. For studies of on-chip CIB2 dimerization, HBS buffer (20 mM HEPES, pH 7.5, 150 mM KCl, 1 mM MgCl2, 50 µM EDTA, 0.005% Tween 20), was used both as immobilization and running buffer, with the addition of fresh 1 mM DTT just before each experiment. […]
molecule,measurement,setting,value
"CIB2: Recombinant human CIB2, Ca^2+ and Mg^2+-binding protein (protein, left off: His tag, end not stated, cleaved) MGNKQTIFTEEQLDNYQDCTFFNKKDILKLHSRFYELAPNLVPMDYRKSPIVHVPMSLIIQMPELRENPFKERIVAAFSEDGEGNLTFNDFVDMFSVLCESAPRELKANYAFKIYDFNTDNFICKEDLELTLARLTKSELDEEEVVLVCDKVIEEADLDGDGKLGFADFEDMIAKAPDFLSTFHIRI",native band after trypsin,[1]; 1 mM EDTA (apo),completely lost
same,native band after trypsin,[1]; 1 mM Mg^2+ or 1 mM Mg^2+ + 2 mM Ca^2+,permitted the detection of the native CIB2 band even after 30 min
same,degradation without trypsin,[2],some propensity to degradation
same,dimerization signal by SPR,[3],"sensorgrams, except for some non-specific bulk effect; also recorded: In no case was a signal detected; also recorded: SPR did not detect dimerization"
